Test results from patent US20220275088A1 (Dana-Farber, published 2022).

T1: mouse PD-1 on transiently transfected Expi293 cells (mouse, UniProt Q02242 25-288)
T1 construct: whole, on cells; also called mPD-1
T1 sequence (looked up): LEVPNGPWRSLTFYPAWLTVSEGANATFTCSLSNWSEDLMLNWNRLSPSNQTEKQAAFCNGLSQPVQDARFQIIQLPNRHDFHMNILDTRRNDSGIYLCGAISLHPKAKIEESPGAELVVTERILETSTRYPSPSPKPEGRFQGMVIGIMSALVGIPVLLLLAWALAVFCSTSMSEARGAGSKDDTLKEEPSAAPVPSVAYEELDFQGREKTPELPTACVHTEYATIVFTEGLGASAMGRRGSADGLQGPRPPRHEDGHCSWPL


Experiments:
[1] = biological target: human PD-1 on cells (transfected Expi293 cells, PHA-cultured T cells, cells of the Promega PD1-PDL1 bioassay, … (human, UniProt Q15116 25-288)); test: cell-based or functional assay
Chain of human PD-1 on cells (transfected Expi293 cells, PHA-cultured T cells, cells of the Promega PD1-PDL1 bioassay, … (Q15116 25-288): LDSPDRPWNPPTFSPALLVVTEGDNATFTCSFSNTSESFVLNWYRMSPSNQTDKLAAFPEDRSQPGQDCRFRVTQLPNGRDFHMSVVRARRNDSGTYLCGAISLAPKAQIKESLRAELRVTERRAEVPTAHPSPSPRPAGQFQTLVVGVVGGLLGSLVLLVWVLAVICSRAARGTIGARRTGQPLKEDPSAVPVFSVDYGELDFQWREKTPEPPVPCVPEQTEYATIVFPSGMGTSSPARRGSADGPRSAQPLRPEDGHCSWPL

[2] = biological target: T1, mouse PD-1 on transiently transfected …; test: flow cytometry on transiently transfected Expi293 cells, anti human Fc-APC
Protocol: 3E5 transiently transfected Expi293 cells were suspended in 100 ul MACS buffer and added to each well. 50 ul of each antibody dilution were then mixed with the cells and the plate was incubated at 4° C. for 30 min. Following incubation, the plate was washed 2× with MACS buffer and then incubated with 1 ul/well anti human Fc-APC (Biolegend #409306). The plate was incubated for 25 min at 4° C. and then washed 3× before running the samples.

| fold induction (RLU stimulated/RLU unstimulated), Promega PD1-PDL1 bioassay [1] | binding result [2] | Binder |
| --- | --- | --- |
| ~0.5 fold of the signal of pembro and nivo | – | P4-B3 IgG1 wild type monomer (antibody, V domains shown) VH: QVQLVQSGGGLVQPGRSLRLSCAASGFTFDDYAMHWVRQAPGKGLEWVSGISWNSGSIGYADSVKGRFTVSRDNAKNSLYLQMNSLRAEDTAVYYCASDYGDKYYYYGMDVWGKGTTVTVSS VL: QPGLTQPPSASGTPGQRVTISCSGSSSNIGSNTVNWYQQFPGKAPKLLIFNDNQRPSGVPDRFSASKSGTSASLAISGLQSEDEADYYCAAWDGGLNGRGVFGGGTKLTVLG |
| – | binds | P4-B3 (Example 8, format not stated) (antibody, V domains shown, Detected with anti human Fc-APC, so it carries a human Fc) VH: QVQLVQSGGGLVQPGRSLRLSCAASGFTFDDYAMHWVRQAPGKGLEWVSGISWNSGSIGYADSVKGRFTVSRDNAKNSLYLQMNSLRAEDTAVYYCASDYGDKYYYYGMDVWGKGTTVTVSS VL: QPGLTQPPSASGTPGQRVTISCSGSSSNIGSNTVNWYQQFPGKAPKLLIFNDNQRPSGVPDRFSASKSGTSASLAISGLQSEDEADYYCAAWDGGLNGRGVFGGGTKLTVL |
